Experimental data published in patent publication US20220194999A1 (Janssen / Centocor, published 2022).

How the values were obtained:
[1] = target: T1, HLA-A*02:01 class I complex (conditional p*HLA*02:01, biotinylated heavy chain with beta2-microglobulin) (human, biotinylated heavy chain); assay: UV peptide exchange, HLA class I ELISA, % of Pos peptide;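 on Average %: Streptavidin-captured HLA complexes after exchange detected via HRP anti-human B2M antibody, absorbance read, colour scales with intact complex, normalized to exchange control peptide as 100%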;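 on Exch I (%): Streptavidin-captured HLA complexes after exchange detected via HRP anti-human B2M antibody, absorbance read, colour scales with intact complex, normalized to exchange control peptide as 100%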;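 on Exch II (%): Streptavidin-captured HLA complexes after exchange detected via HRP anti-human B2M antibody, absorbance read, colour scales with intact complex, normalized to exchange control peptide as 100%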
T1 construct: UV-labile peptide p* is cleaved and exchanged for the test peptide; also called HLA 2.1
Text: (§1) The HLA class I ELISA is an enzyme immunoassay based on the detection of beta2-microglobulin (B2M) of (peptide-stabilized) HLA class I complexes. To this end streptavidin is bound onto polystyrene microtiter wells. After washing and blocking, HLA complex present in exchange reaction mixtures or ELISA controls is captured by the streptavidin on the microtiter plate via its biotinylated heavy chain. Non-bound material is removed by washing. Subsequently, horseradish peroxidase (HRP)-conjugated antibody to human B2M is added. […] In the latter case B2M is removed during the washing step. After removal of non-bound HRP conjugate by washing, a substrate solution is added to the wells. A colored product is formed in proportion to the amount of intact HLA complex present in the samples. After the reaction has been terminated by the addition of a stop solution, absorbance is measured in a microtiter plate reader. The absorbance is normalized to the absorbance of an exchange control peptide (represents 100%). Also, suboptimal HLA binding of peptides with a moderate to low affinity for HLA class I molecules can be detected by this ELISA technique
(§2) Coating wells of two NUNC MaxiSorp™ 96-well ELISA plates: only the contents of one coating buffer capsule were dissolved in 100 mL of distilled water (0.05 M carbonate-bicarbonate buffer, pH 9.6 at 25° C.). 46 μL of Streptavidin stock solution were added to 23 mL coating buffer. 100 μL of the Streptavidin stock solution were added to all wells. Each microtiter plate was covered with an adhesive seal and incubated overnight at room temperature (18-25° C.).

[2] = target: T1, HLA-A*02:01 class I complex …; assay: UV peptide exchange, HLA class I ELISA; low end of the group, member by Table 4
Text: as §1, §2

[3] = target: T1, HLA-A*02:01 class I complex …; assay: UV peptide exchange, HLA class I ELISA; high end of the group, member by Table 4
Text: as §1, §2

[4] = target: T1, HLA-A*02:01 class I complex …; assay: UV peptide exchange, HLA class I ELISA, % of Pos peptide; remark: listed apart in the source
[5] = target: T1, HLA-A*02:01 class I complex …; assay: as above; remark: listed apart in the source
Text: as §1, §2

Binder | Average % [1] [%] | Exch I (%) [1] [%] | Exch II (%) [1] [%] | average relative binding (%) [2] [%] | average relative binding (%) [3] [%] | Mutant Binding [4] [%] | average relative binding (%) [5] [%]
LLVVGAAGV (also called M051) [KRAS_G12A2 mimic peptide LLVVGAAGV] | 33.3 | 34.1 | 32.5 | 33 to 38 |  |  | 
LMVVGACGV (also called M062) [KRAS_G12C3 mimic peptide LMVVGACGV] | 48.7 | 47.1 | 50.4 |  | 41 to 49 |  | 
VLSDAISAV (also called M121; SOX17_S40312) [SOX17_S403I2 mimic peptide VLSDAISAV] | 90.1 | 89.3 | 90.9 | 90 to 100 |  |  | 
KLYPVQLWV (also called M131) [TP53_C141Y2 mimic peptide KLYPVQLWV] | 81.9 | 84.1 | 79.8 | 80 to 88 |  |  | 
KTYPVQLWV (also called M130) [TP53.C141Y mutant peptide KTYPVQLWV] | 68.9 | 66.6 | 71.2 |  |  | 68.9 | 
KMYPVQLWL (also called M133) [TP53_C141Y8 mimic peptide KMYPVQLWL] | 112 | 122 | 103 |  | 102 to 113 |  | > 100
VVPCEPPEV (also called M230) [TP53.Y220C mutant peptide VVPCEPPEV] | 33.5 | 29.4 | 37.5 |  |  | 33.5 | 
VMPCEPPEV (also called M232) [TP53_Y220C3 mimic peptide VMPCEPPEV] | 60.9 | 62.9 | 58.9 | 61 to 69 |  |  | 
VLPCEPPEV (also called M231) [TP53_Y220C2 mimic peptide VLPCEPPEV] | 70 | 66.3 | 73.7 | 70 to 79 |  |  | 
QLWVDSTPL (also called M180) [TP53.P152L mutant peptide QLWVDSTPL] | 86.2 | 84.3 | 88.1 |  |  | 86.2 | 
ALNNMFCQV (also called M161) [TP53_K132N5 mimic peptide ALNNMFCQV] | 69.3 | 69.7 | 68.8 |  | 61 to 69 |  | 
ALNNMFCQL (also called M160) [TP53.K132N mutant peptide ALNNMFCQL] | 41.3 | 39.6 | 43.1 | 41 to 49 |  | 41.3 | 
NMDEYVHNL (also called M113) [SF3B1_R625H9 mimic peptide NMDEYVHNL] | 58.1 | 62 | 54.3 |  | 50 to 58 |  | 
CYLYYYSYLL (also called M101) [PTEN R173C2 mimic peptide CYLYYYSYLL] | 18.3 | 16.1 | 20.6 | 18 to 28 |  |  | 
CYVYYYSYLL (also called M100) [PTEN.R173C mutant peptide CYVYYYSYLL] | 38.4 | 38.2 | 38.5 |  | 33 to 38 |  | 
YMDSGIHFV (also called M033) [CTNNB1_S37F6 mimic peptide YMDSGIHFV] | 99.8 | 104 | 95.5 |  | 90 to 100 |  | 
YLDSGIHFG (also called M030) [CTNNB1.S37F mutant peptide YLDSGIHFG] | 53.4 | 53.7 | 53.2 |  |  | 53.7 | 
ILNREIDFA (also called M090) [PIK3CA.G118D mutant peptide ILNREIDFA] | 50.4 | 53.1 | 47.8 |  |  | 50.4 | 
LLGRNSFEM (also called M220) [TP53.V272M mutant peptide LLGRNSFEM] | 50.9 | 58.8 | 42.9 |  |  | 50.9 | 
SMTCTYFPV (also called M213) [TP53_S127F7 mimic peptide SMTCTYFPV] | 88.4 | 83.4 | 93.3 |  | 80 to 88 |  | 
SMTCTYFPI (also called M215) [TP53_S127F12 mimic peptide SMTCTYFPI] | 27.5 | 32.2 | 22.7 |  | 18 to 28 |  | 
YQGSYGFLL (also called M200) [TP53.R110L mutant peptide YQGSYGFLL] | 11.9 | 14.3 | 9.6 |  |  |  | < 15
YQGSYGFLV (also called M202) [TP53_R110L4 mimic peptide YQGSYGFLV] | 49.6 | 53.6 | 45.6 | 50 to 58 |  |  | 
YQGSYGFLI (also called M201) [TP53_R110L3 mimic peptide YQGSYGFLI] | 8.9 | 7.1 | 10.8 |  |  |  | < 15
GLKDLLNPI (also called M080) [PIK3CA.E453K mutant peptide GLKDLLNPI] | 79.4 | 73.8 | 84.9 |  | 70 to 79 |  | 
YLDCGIHSG (also called M020) [CTNNB1.S33C mutant peptide YLDCGIHSG] | 33.9 | 34.8 | 33 |  |  | 34.8 | 
YLDCGIHSV (also called M022) [CTNNB1_S33C5 mimic peptide YLDCGIHSV] | 102 | 100 | 104 | 102 to 113 |  |  | > 100
SVTCTYFPA (also called M210) [TP53.S127F mutant peptide SVTCTYFPA] | 8.6 | 7.7 | 9.4 |  |  |  | < 15
RLIHRDLAA (also called M240) [ERBB2.V842I mutant peptide RLIHRDLAA] | 7.2 | 6.8 | 7.7 |  |  |  | < 15
